Experimental data: patent US20240270874A1 (JIANGSU HENGRUI PHARMACEUTICALS, published 2024)

T1: human KLB on CHOK1-hKLB cells (human, UniProt Q86Z14 1-1044)
T1 construct: whole, on cells; also called human KLB antigen; β-Klotho
T1 sequence (looked up): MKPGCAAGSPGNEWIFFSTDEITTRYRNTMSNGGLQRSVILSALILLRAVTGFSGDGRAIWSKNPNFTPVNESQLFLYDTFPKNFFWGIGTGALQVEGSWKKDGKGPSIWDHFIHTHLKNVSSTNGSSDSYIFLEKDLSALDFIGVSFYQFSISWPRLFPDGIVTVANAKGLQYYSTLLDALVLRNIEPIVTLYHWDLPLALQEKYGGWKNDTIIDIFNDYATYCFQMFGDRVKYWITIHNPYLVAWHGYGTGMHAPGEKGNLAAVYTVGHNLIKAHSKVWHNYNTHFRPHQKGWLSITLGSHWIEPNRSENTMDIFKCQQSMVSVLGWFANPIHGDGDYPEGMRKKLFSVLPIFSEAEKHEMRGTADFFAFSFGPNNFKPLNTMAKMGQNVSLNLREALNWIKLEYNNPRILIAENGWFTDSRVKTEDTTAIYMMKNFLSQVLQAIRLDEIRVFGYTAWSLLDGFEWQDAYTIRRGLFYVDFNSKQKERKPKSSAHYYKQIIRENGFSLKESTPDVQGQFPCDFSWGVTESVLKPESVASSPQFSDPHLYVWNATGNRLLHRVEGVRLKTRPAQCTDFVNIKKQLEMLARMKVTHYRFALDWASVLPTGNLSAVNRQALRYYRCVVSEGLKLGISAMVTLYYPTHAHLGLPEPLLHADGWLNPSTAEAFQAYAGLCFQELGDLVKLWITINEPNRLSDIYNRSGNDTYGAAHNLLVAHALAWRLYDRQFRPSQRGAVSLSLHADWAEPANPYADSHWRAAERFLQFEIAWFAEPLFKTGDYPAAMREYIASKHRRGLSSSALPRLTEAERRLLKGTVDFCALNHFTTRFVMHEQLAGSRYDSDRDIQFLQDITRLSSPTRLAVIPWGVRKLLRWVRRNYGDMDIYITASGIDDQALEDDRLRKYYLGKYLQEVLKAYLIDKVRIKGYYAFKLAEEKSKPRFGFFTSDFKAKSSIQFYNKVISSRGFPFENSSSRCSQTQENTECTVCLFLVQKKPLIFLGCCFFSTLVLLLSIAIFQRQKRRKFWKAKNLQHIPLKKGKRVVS


Tests used:
[1] = molecular target: T1, human KLB on CHOK1-hKLB cells; test: flow cytometry on CHOK1-hKLB cells
Description: The above heavy chain variable regions were fused to the heavy chain constant region (set forth in SEQ ID NO: 22) and the light chain variable regions were fused to the light chain constant region (set forth in SEQ ID NO: 23) to construct anti-KLB antibodies, and the binding activity of the obtained antibodies for CHOK1-hKLB was detected (see Test Example 2 of the present disclosure for the experimental method).
The binding ability of the antibodies for CHOK1 cell strains CHOK1-hKLB and CHOK1-cynoKLB overexpressing human KLB and monkey KLB (see Example 1 for specific preparation procedure), respectively, was detected by flow cytometry. The specific procedure was as follows: the above cells were cultured in 10% FBS-containing IMDM medium and incubated in an incubator at 37° C. and 5% CO₂ for 2 days. The cells were then added to a cell plate at 1×10⁵ cells per well, centrifuged at 300 g for 5 min, and then washed once with 1% BSA. The antibody diluted in gradient was added to the cell plate at 100 μL per well, and the mixture was incubated at 4° C. for 1 h and washed once with 1% BSA. The diluted (1:400) APC-goat anti-human IgG Fc fluorescent secondary antibody was added at 100 μL per well, and the resulting mixture was incubated at 4° C. for 1 h. The plate was washed three times with 1% BSA, PBS was added at 100 μL per well, and the plate was read.

[2] = molecular target: T2, human FGFR1c on cells (human, UniProt P11362 22-822); test: hybridoma clone screening on recombinant cells
T2 construct: whole, on cells; also called hFGFR1c; CHOK1-hFGFR1c
T2 sequence (P11362 22-822): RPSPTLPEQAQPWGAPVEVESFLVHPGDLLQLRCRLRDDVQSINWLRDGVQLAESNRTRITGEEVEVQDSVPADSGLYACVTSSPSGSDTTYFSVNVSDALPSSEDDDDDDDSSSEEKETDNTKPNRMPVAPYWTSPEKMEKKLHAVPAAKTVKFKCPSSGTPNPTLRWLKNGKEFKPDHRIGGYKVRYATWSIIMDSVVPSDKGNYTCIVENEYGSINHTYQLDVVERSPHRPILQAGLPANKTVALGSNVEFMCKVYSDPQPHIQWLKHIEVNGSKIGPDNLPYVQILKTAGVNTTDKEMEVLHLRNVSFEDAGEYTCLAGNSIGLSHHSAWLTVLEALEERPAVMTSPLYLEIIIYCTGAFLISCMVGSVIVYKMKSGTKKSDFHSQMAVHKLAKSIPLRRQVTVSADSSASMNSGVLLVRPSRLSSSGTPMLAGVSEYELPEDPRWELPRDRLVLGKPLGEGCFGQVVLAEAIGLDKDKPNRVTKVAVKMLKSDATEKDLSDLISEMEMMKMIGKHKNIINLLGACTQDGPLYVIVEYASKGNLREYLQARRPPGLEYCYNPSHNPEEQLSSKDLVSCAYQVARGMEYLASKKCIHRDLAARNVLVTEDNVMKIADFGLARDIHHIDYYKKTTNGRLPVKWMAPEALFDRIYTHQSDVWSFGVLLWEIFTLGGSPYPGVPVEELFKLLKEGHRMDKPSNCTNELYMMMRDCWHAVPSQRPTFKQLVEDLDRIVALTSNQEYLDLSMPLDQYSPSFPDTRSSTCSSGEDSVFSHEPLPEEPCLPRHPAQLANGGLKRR

Row | Binder | EC50 [1] [nM] | binding result [2]
1 | mAb18-hIgG1 (antibody, V domains shown, chimeric: murine mAb-18 variable regions on human IgG1 (L234A, L235A) / kappa constant regions; also called chimeric antibody of mAb18) VH: QVQLQQSGPELVRPGVSVKISCKGSGYTFTDYAMHWVKQTHAKSLEWIGVISTYSGTTNYNQNFKGKATVTVDKSSSTAYMELARLTSEDSAIYYCARSGPLDYWGQGTSLTVSS VL: ENVLTQSPAIMSASPGEKVTMTCRASSSVSSSYLHWYQQKSGASPKLWIYSTSNLASGVPERFSGSGSGTSYSLTISSVEAEDAATYYCQQYSGYPLTFGSGTKLEIKR | 2.16 | 
2 | mAb-18 (antibody, V domains shown, murine hybridoma antibody; also called murine antibody mAb-18) VH: QVQLQQSGPELVRPGVSVKISCKGSGYTFTDYAMHWVKQTHAKSLEWIGVISTYSGTTNYNQNFKGKATVTVDKSSSTAYMELARLTSEDSAIYYCARSGPLDYWGQGTSLTVSS VL: ENVLTQSPAIMSASPGEKVTMTCRASSSVSSSYLHWYQQKSGASPKLWIYSTSNLASGVPERFSGSGSGTSYSLTISSVEAEDAATYYCQQYSGYPLTFGSGTKLEIK |  | no binding
3 | mAb-99 (antibody, V domains shown, murine hybridoma antibody; also called murine antibody mAb-99) VH: EVQLQQSGAELVRPGSSVKMSCKTSGYTFTNYGINWVKQRPRQGLEWIGYIYIGNGDIEYNAKFKGKATLTSDTSSSTAYMQLSSLTSEDSAIYFCARGRGLGHFDVWGTGTTVTVSS VL: DVQITQSPSYLAASPGETITINCRASKSISKFLAWFQEKPGKTNKLLIYSGSTLQSGIPSRFSGSGSGTDFTLTISGLEPEDFAMYYCQQHNEYPWTFGGGTKLEIK |  | no binding
4 | hAb18-9 (antibody, human IgG1, kappa, L234A L235A, V domains shown, humanized mAb-18: hAb18VH1 + hAb18VL2-3; human IgG1 (L234A, L235A) / kappa constant regions) VH: EVQLVQSGAEVKKPGASVKVSCKASGYTFTDYAMHWVRQAPGQRLEWMGVISTYSGTTNYNQNFKGRVTITVDKSASTAYMELSSLRSEDTAVYYCARSGPLDYWGQGTTVTVSS VL: ENVLTQSPDFQSVTPKEKVTITCRVSSSVSSSYLHWYQQKPDQSPKLWIYSTSQLASGVPSRFSGSGSGTDYTLTINSLEAEDAATYYCQQYSGYPLTFGQGTKLEIKR | 2.4 | 
5 | hAb18-15 (antibody, human IgG1, kappa, L234A L235A, V domains shown, humanized mAb-18: hAb18VH1 + hAb18VL2-9; human IgG1 (L234A, L235A) / kappa constant regions) VH: EVQLVQSGAEVKKPGASVKVSCKASGYTFTDYAMHWVRQAPGQRLEWMGVISTYSGTTNYNQNFKGRVTITVDKSASTAYMELSSLRSEDTAVYYCARSGPLDYWGQGTTVTVSS VL: ENVLTQSPDFQSVTPKEKVTITCRVSSSVSSSYLHWYQQKPDQSPKLWIYSTSNLASGVPSRFSGSGSGTDYTLTINSLEAEDAATYYCQQYSGYPLTFGQGTKLEIKR | 1.9 | 
6 | hAb18-10 (antibody, human IgG1, kappa, L234A L235A, V domains shown, humanized mAb-18: hAb18VH1 + hAb18VL2-4; human IgG1 (L234A, L235A) / kappa constant regions) VH: EVQLVQSGAEVKKPGASVKVSCKASGYTFTDYAMHWVRQAPGQRLEWMGVISTYSGTTNYNQNFKGRVTITVDKSASTAYMELSSLRSEDTAVYYCARSGPLDYWGQGTTVTVSS VL: ENVLTQSPDFQSVTPKEKVTITCRASSSVSTSYLHWYQQKPDQSPKLWIYSTSQLASGVPSRFSGSGSGTDYTLTINSLEAEDAATYYCQQYSGYPLTFGQGTKLEIKR | 2.7 | 
7 | hAb18-16 (antibody, human IgG1, kappa, L234A L235A, V domains shown, humanized mAb-18: hAb18VH1 + hAb18VL2-10; human IgG1 (L234A, L235A) / kappa constant regions) VH: EVQLVQSGAEVKKPGASVKVSCKASGYTFTDYAMHWVRQAPGQRLEWMGVISTYSGTTNYNQNFKGRVTITVDKSASTAYMELSSLRSEDTAVYYCARSGPLDYWGQGTTVTVSS VL: ENVLTQSPDFQSVTPKEKVTITCRASSSVSTSYLHWYQQKPDQSPKLWIYSTSNLASGVPSRFSGSGSGTDYTLTINSLEAEDAATYYCQQYSGYPLTFGQGTKLEIKR | 2.4 | 
8 | hAb18-13 (antibody, human IgG1, kappa, L234A L235A, V domains shown, humanized mAb-18: hAb18VH1 + hAb18VL2-7; human IgG1 (L234A, L235A) / kappa constant regions) VH: EVQLVQSGAEVKKPGASVKVSCKASGYTFTDYAMHWVRQAPGQRLEWMGVISTYSGTTNYNQNFKGRVTITVDKSASTAYMELSSLRSEDTAVYYCARSGPLDYWGQGTTVTVSS VL: ENVLTQSPDFQSVTPKEKVTITCRASSNVSSSYLHWYQQKPDQSPKLWIYSTSQLASGVPSRFSGSGSGTDYTLTINSLEAEDAATYYCQQYSGYPLTFGQGTKLEIKR | 5.4 | 
9 | hAb18-11 (antibody, human IgG1, kappa, L234A L235A, V domains shown, humanized mAb-18: hAb18VH1 + hAb18VL2-5; human IgG1 (L234A, L235A) / kappa constant regions) VH: EVQLVQSGAEVKKPGASVKVSCKASGYTFTDYAMHWVRQAPGQRLEWMGVISTYSGTTNYNQNFKGRVTITVDKSASTAYMELSSLRSEDTAVYYCARSGPLDYWGQGTTVTVSS VL: ENVLTQSPDFQSVTPKEKVTITCRASSSVTSSYLHWYQQKPDQSPKLWIYSTSQLASGVPSRFSGSGSGTDYTLTINSLEAEDAATYYCQQYSGYPLTFGQGTKLEIKR | 2.7 | 
10 | hAb18-19 (antibody, human IgG1, kappa, L234A L235A, V domains shown, humanized mAb-18: hAb18VH1 + hAb18VL2-13; human IgG1 (L234A, L235A) / kappa constant regions) VH: EVQLVQSGAEVKKPGASVKVSCKASGYTFTDYAMHWVRQAPGQRLEWMGVISTYSGTTNYNQNFKGRVTITVDKSASTAYMELSSLRSEDTAVYYCARSGPLDYWGQGTTVTVSS VL: ENVLTQSPDFQSVTPKEKVTITCRASSNVSSSYLHWYQQKPDQSPKLWIYSTSNLASGVPSRFSGSGSGTDYTLTINSLEAEDAATYYCQQYSGYPLTFGQGTKLEIKR | 4.1 | 

More lines, now with the values ahead:

Row | EC50 [1] [nM] | binding result [2] | Binder
11 | 0.97 |  | mAb99-hIgG1 (antibody, V domains shown, chimeric: murine mAb-99 variable regions on human IgG1 (L234A, L235A) / kappa constant regions; also called chimeric antibody of mAb99) VH: EVQLQQSGAELVRPGSSVKMSCKTSGYTFTNYGINWVKQRPRQGLEWIGYIYIGNGDIEYNAKFKGKATLTSDTSSSTAYMQLSSLTSEDSAIYFCARGRGLGHFDVWGTGTTVTVSS VL: DVQITQSPSYLAASPGETITINCRASKSISKFLAWFQEKPGKTNKLLIYSGSTLQSGIPSRFSGSGSGTDFTLTISGLEPEDFAMYYCQQHNEYPWTFGGGTKLEIKR
12 | 1.9 |  | hAb18-12 (antibody, human IgG1, kappa, L234A L235A, V domains shown, humanized mAb-18: hAb18VH1 + hAb18VL2-6; human IgG1 (L234A, L235A) / kappa constant regions) VH: EVQLVQSGAEVKKPGASVKVSCKASGYTFTDYAMHWVRQAPGQRLEWMGVISTYSGTTNYNQNFKGRVTITVDKSASTAYMELSSLRSEDTAVYYCARSGPLDYWGQGTTVTVSS VL: ENVLTQSPDFQSVTPKEKVTITCRASSSLSSSYLHWYQQKPDQSPKLWIYSTSQLASGVPSRFSGSGSGTDYTLTINSLEAEDAATYYCQQYSGYPLTFGQGTKLEIKR
13 | 1.6 |  | hAb18-14 (antibody, human IgG1, kappa, L234A L235A, V domains shown, humanized mAb-18: hAb18VH1 + hAb18VL2-8; human IgG1 (L234A, L235A) / kappa constant regions) VH: EVQLVQSGAEVKKPGASVKVSCKASGYTFTDYAMHWVRQAPGQRLEWMGVISTYSGTTNYNQNFKGRVTITVDKSASTAYMELSSLRSEDTAVYYCARSGPLDYWGQGTTVTVSS VL: ENVLTQSPDFQSVTPKEKVTITCRATSSVSSSYLHWYQQKPDQSPKLWIYSTSNLASGVPSRFSGSGSGTDYTLTINSLEAEDAATYYCQQYSGYPLTFGQGTKLEIKR
14 | 1.7 |  | hAb18-18 (antibody, human IgG1, kappa, L234A L235A, V domains shown, humanized mAb-18: hAb18VH1 + hAb18VL2-12; human IgG1 (L234A, L235A) / kappa constant regions) VH: EVQLVQSGAEVKKPGASVKVSCKASGYTFTDYAMHWVRQAPGQRLEWMGVISTYSGTTNYNQNFKGRVTITVDKSASTAYMELSSLRSEDTAVYYCARSGPLDYWGQGTTVTVSS VL: ENVLTQSPDFQSVTPKEKVTITCRASSSLSSSYLHWYQQKPDQSPKLWIYSTSNLASGVPSRFSGSGSGTDYTLTINSLEAEDAATYYCQQYSGYPLTFGQGTKLEIKR
15 | 1.8 |  | hAb18-17 (antibody, human IgG1, kappa, L234A L235A, V domains shown, humanized mAb-18: hAb18VH1 + hAb18VL2-11; human IgG1 (L234A, L235A) / kappa constant regions) VH: EVQLVQSGAEVKKPGASVKVSCKASGYTFTDYAMHWVRQAPGQRLEWMGVISTYSGTTNYNQNFKGRVTITVDKSASTAYMELSSLRSEDTAVYYCARSGPLDYWGQGTTVTVSS VL: ENVLTQSPDFQSVTPKEKVTITCRASSSVTSSYLHWYQQKPDQSPKLWIYSTSNLASGVPSRFSGSGSGTDYTLTINSLEAEDAATYYCQQYSGYPLTFGQGTKLEIKR
